# Assay results as given in patent US20210398607A1, “METHODS FOR DESIGNING ANTIBODY SMALL-MOLECULE CONJUGATES” (priority 2020, published 2021).
# Numbering of substitutions follows the chain as printed. In names and notes the source's numbering stands. Entries after “also recorded” stand apart in the source; their conditions may differ.
# B1: 4NBX.B-biotin103 v186 (VHH)
# VHH: QVQLQESGGGLAQAGGSLRLSCAASGRTFSRSPMAWFRQPPGKEREFVAAGSSTGTTTYYADSVKGRFTISRDNAKNTVYLQMNSLKPEDTAVYYCAAAPLGCARKFAESAYWGQGTQVTVSS
# B2: 4NBX.B-biotin103 v186_Fr -1 (VHH)
# VHH: B1 VHH with A12V, F37Y, G102C, C103A
# notes: also called -1 variant of 4NBX.B-biotin103 v186_Fr
# B3: 4NBX.B-biotin103 v186_Fr +1 (VHH)
# VHH: B1 VHH with A12V, F37Y, C103A, A104C
# notes: also called +1 variant of 4NBX.B-biotin103 v186_Fr
# B4: 2X89.A-CCAA-biotin57 v42 (VHH)
# VHH: QVQLQESGGGLVQAGGSLRLSCAASGYTDSQYAMGWYRQAPGKEREWVATISAGRDCTYYADSVKGRFTFSQDNAKNTVYLQMDSLKPEDTAVYYCATDIPLQATLITAKGGKGFQYWGQGTQVTVSS
# B5: 2X89.A-CCAA-biotin57 v5 (VHH)
# VHH: B4 VHH with D29S, R55A, I100S
# notes: also called variant v5; final variant v5
# B6: 2X89.A-CCAA-biotin57 v20 (VHH)
# VHH: B4 VHH with D29S, I100S
# B7: 2X89.A-CCAA-biotin57 v37 (VHH)
# VHH: B4 VHH with Q31R, T50R, K113D, Q116R
# B8: 2X89.A-CCAA-biotin57 v5: final variant of 2X89.A-CCAA-biotin57 that accumulated 18 mutations, SEQ ID NO:14 (conjugate)
# VHH: QVQLQESGGGLVQAGGSLRLSCAASGYTSSQYAMGWYRQAPGKEREWVATISAGADCTYYADSVKGRFTFSQDNAKNTVYLQMDSLKPEDTAVYYCATDSPLQATLITAKGGKGFQYWGQGTQVTVSSHHHHHH
# B9: Wildtype 4NBX.B: nanobody scaffold, chain B of PDB structure 4NBX, SEQ ID NO:1, unconjugated (protein)
# VHH: QVQLQESGGGLAQAGGSLRLSCAASGRTFSMDPMAWFRQPPGKEREFVAAGSSTGRTTYYADSVKGRFTISRDNAKNTVYLQMNSLKPEDTAVYYCAAAPYGANWYRDEYAYWGQGTQVTVSSHHHHHH
# modifications: 4NBX.B-WT
# B10: 4NBX.B-biotin103 v149: 4NBX.B-biotin103 with M31R/D32S/N104A/W105R, SEQ ID NO:4; the WT line of Table 3 (conjugate)
# VHH: B9 VHH with M31R, D32S, A103C, N104A, W105R
# B11: 4NBX.B-biotin103: nanobody 4NBX.B A103C (SEQ ID NO:2) conjugated with biotin C2 maleimide at site 103 (conjugate)
# VHH: B9 VHH with A103C
# B12: 4NBX.B-biotin103 v119: 4NBX.B-biotin103 with M31H/D32A/N104S/W105H, SEQ ID NO:3 (conjugate)
# VHH: B9 VHH with M31H, D32A, A103C, N104S, W105H
# B13: 2X89.A-CCAA-biotin57: nanobody 2X89.A, intra-CDR disulfide replaced by two alanines, biotin conjugated to site 57, SEQ ID NO:10 (conjugate)
# VHH: QVQLQESGGGSVQAGGSLRLSCAASGYTDSRYAMAWFRQAPGKEREWVARINSGRDCTYYADSVKGRFTFSQDNAKNTVYLQMDSLEPEDTATYYCATDIPLRARDIVAKGGDGFRYWGQGTQVTVSSHHHHHH
# B14: 4NBX.B-biotin103 v186: v149 plus Y101L/R107F/R56T/Y106K/D108A/Y110S, SEQ ID NO:5; the WT line of Table 2 (conjugate)
# VHH: QVQLQESGGGLAQAGGSLRLSCAASGRTFSRSPMAWFRQPPGKEREFVAAGSSTGTTTYYADSVKGRFTISRDNAKNTVYLQMNSLKPEDTAVYYCAAAPLGCARKFAESAYWGQGTQVTVSSHHHHHH
# B15: 4NBX.B-biotin103 v186_Fr: v186 plus framework mutations A12V/F37Y, SEQ ID NO:6 (conjugate)
# VHH: B14 VHH with A12V, F37Y
# B16: 4NBX.B-biotin103 v186_Fr − 1: v186_Fr with biotin103 moved to −1 position on CDR3, SEQ ID NO:8 (conjugate)
# VHH: B14 VHH with A12V, F37Y, G102C, C103A
# modifications: biotin conjugated; 4NBX.B-biotin103 v186_Fr -1
# B17: 4NBX.B-biotin103 v186_Fr + 1: v186_Fr with biotin103 moved to +1 position on CDR3, SEQ ID NO:7 (conjugate)
# VHH: B14 VHH with A12V, F37Y, C103A, A104C
# modifications: biotin conjugated; 4NBX.B-biotin103 v186_Fr +1
# B18: mSA (monomeric streptavidin construct), wild type (other)
# chain: HHHHHHSQDLASAEAGITGTWYNQSGSTFTVTAGADGNLTGQYENRAQGTGCQNSPYTLTGRYNGTKLEWRVEWNNSTENCHSRTEWRGQYQGGAEARINTQWNLTYEGGSGPATEQGQDTFTKVKPSAASGSDYKDDDDK
# notes: also called mSAWT
# Legend:
# [1] = biological target: B18; assay: SPR, conjugate injected at 0.5, 1, 2.5, 5, 10 nM over immobilized mSAWT; fit curve
# [2] = biological target: B18; assay: SPR, single-cycle injections of 1, 2.5, 5, 10 and 20 nM conjugate over immobilized mSAWT; fit curve
# [3] = biological target: B18; assay: as above
# [4] = biological target: B18; assay: SPR
# [5] = biological target: B18; assay: SPR, single-cycle injections of 2.5, 5, 10, 20 and 50 nM conjugate; target mSAWT by the text, not printed on the sheet; fit curve
# [6] = biological target: B18; assay: as above
# [7] = biological target: B18; assay: as above
# [8] = for aggregation / monomer stability on SEC: SEC traces
# Description: Two additional rounds of CDR residue mutability analysis were performed followed by in-parallel combinatorial designs on v149 until no further CDR mutations were predicted to be energetically favorable. Mutations accumulated in previous rounds of design were kept intact in subsequent rounds.
# [9] = biological target: mSA (monomeric streptavidin, mSAWT) (Streptomyces avidinii; Rhizobium etli, UniProt P22629+Q8KKW2); assay: SPR binding against mSAWT; conditions: for koff / dissociation rate, in words: mSAWT
# Text: Smt3 SUMO protein has an unstructured N-terminus and it was hypothesized this would minimize the interaction between the protein components.
# [10] = biological target: T1, N-terminal biotinylated Smt3 SUMO protein (UniProt Q12306 2-98 = SUMO); assay: SPR, Biotin_SUMO injected at 2.5, 10, 20, 50, 80 nM over immobilized mSAWT; fit curve; replicate 2
# [11] = biological target: T1, N-terminal biotinylated Smt3 SUMO …; assay: SPR, Biotin_SUMO injected at 2.5, 10, 20, 50, 80 nM over immobilized mSAWT; fit curve; replicate 3
# [12] = biological target: T1, N-terminal biotinylated Smt3 SUMO …; assay: SPR, Biotin_SUMO injected at 2.5, 10, 20, 50, 80 nM over immobilized mSAWT; fit curve; one of three replicates
molecule,measurement,setting,value
B1,Kd,[1],0.33 nM
same,koff,[1],0.00106 s⁻¹
same,kon,[1],3.23e+06 M⁻¹ s⁻¹
B2,Kd,[2],0.32 nM
same,koff,[2],0.000986 s⁻¹
same,kon,[2],3.13e+06 M⁻¹ s⁻¹
B3,Kd,[3],0.64 nM
same,koff,[3],0.00138 s⁻¹
same,kon,[3],2.14e+06 M⁻¹ s⁻¹
same,fold weaker binding than the -1 variant,[4],~2 fold
B4,Kd,[5],3.32 nM
same,koff,[5],0.00178 s⁻¹
same,kon,[5],540000 M⁻¹ s⁻¹
B5,Kd,[6],2.78 nM
same,koff,[6],0.00122 s⁻¹
same,kon,[6],440000 M⁻¹ s⁻¹
B6,Kd,[7],3.28 nM
same,koff,[7],0.00183 s⁻¹
same,kon,[7],560000 M⁻¹ s⁻¹
B7,binding result,[4],binds
B8,aggregation / monomer stability on SEC,[8],eventually better than the 2X89.A-CCAA-biotin57 parent conjugate
same,"koff / dissociation rate, in words",[9],relatively preserved
B9,binding signal to mSA,[9]; concentrations up to 100 nM,did not show binding signal
B10,aggregation / monomer stability on SEC,[8],very prone to aggregation
B11,aggregation / monomer stability on SEC,[8],single peaks
B12,aggregation / monomer stability on SEC,[8],single peaks
same,"koff / dissociation rate, in words",[9],only minimally different
B13,aggregation / monomer stability on SEC,[8],aggregated obviously
same,"koff / dissociation rate, in words",[9],especially slow dissociation rate; also recorded: slightly better than the best designed 4NBX.B variant v186_Fr
B14,aggregation / monomer stability on SEC,[8],even worse aggregates formation than v149
same,"KD / measured affinity against mSAWT, comparison in words",[9],very similar KD as v149
B15,aggregation / monomer stability on SEC,[8],significantly reduced aggregation
same,re-aggregation of collected fractions excluding the aggregates peak,[8]; rerun on SEC,did not re-aggregate
B16,"KD / measured affinity against mSAWT, comparison in words",[9],minimally different from the wildtype v186_Fr
B17,"KD / measured affinity against mSAWT, comparison in words",[9],minimally different from the wildtype v186_Fr
B18,Kd,[10],10.5 nM
same,koff,[10],0.00372 s⁻¹
same,kon,[10],360000 M⁻¹ s⁻¹
same,Kd,[11],10.4 nM
same,koff,[11],0.00366 s⁻¹
same,kon,[11],350000 M⁻¹ s⁻¹
same,Kd,[12],7.85 nM
same,koff,[12],0.00334 s⁻¹
same,kon,[12],430000 M⁻¹ s⁻¹
